Test results from patent publication US20240116985A1 (published 2024).
Starred links: 1 amine or outer side, 2 acyl side, 3 side chain; linkers in the order of their positions; H or OH if unused. Positions of bridges follow the written chain, without caps; N, C: chain ends. Non-standard residues stand in square brackets, D forms with d. Primed or numbered codes have the meaning given here. PyrS2″ = (S)-3-amino-1-((pent-4-en-1-yloxy)carbonyl)pyrrolidine-3-carboxylic acid (stapling residue), C=CCCCOC(=O)N1CC[C@@](N[*:1])(C(=O)[*:2])C1; PyrS2 = (S)-3-amino-1-((pent-4-en-1-yloxy)carbonyl)pyrrolidine-3-carboxylic acid, C=CCCCOC(=O)N1CC[C@@](N[*:1])(C(=O)[*:2])C1; B5(27) = 2-amino-2-(pent-4-en-1-yl)hept-6-enoic acid (two alkene side-chain arms), C=CCCCC(CCCC=C)(N[*:1])C(=O)[*:2]; MePpzAsn = (S)-2-amino-4-(4-methylpiperazin-1-yl)-4-oxobutanoic acid, CN1CCN(C(=O)C[C@H](N[*:1])C(=O)[*:2])CC1; F2PipNva = (S)-2-amino-5-(4,4-difluoropiperidin-1-yl)pentanoic acid, O=C([C@H](CCCN1CCC(F)(F)CC1)N[*:1])[*:2]; MorphAsn = (S)-2-amino-4-morpholino-4-oxobutanoic acid, O=C(C[C@H](N[*:1])C(=O)[*:2])N1CCOCC1; B5(3) = 2,2-bis(4-pentenyl)glycine (stitching residue), C=CCCCC(CCCC=C)(N[*:1])C(=O)[*:2]; MorphAbu = (S)-2-amino-4-morpholinobutanoic acid, O=C([C@H](CCN1CCOCC1)N[*:1])[*:2]; Phe(4-(3-Py)) = N[C@@H](Cc1ccc(-c2cccnc2)cc1)C(=O)O; Nva(5-morpholino) = N[C@@H](CCCN1CCOCC1)C(=O)O; Bta = N[C@@H](Cc1csc2ccccc12)C(=O)O; αAllylPro = C=CC[C@@]1(C(=O)O)CCCN1; tBuAla = CC(C)(C)C[C@H](N)C(=O)O; 3Thi = N[C@@H](Cc1ccsc1)C(=O)O; hSer = N[C@@H](CCO)C(=O)O

T1: B-cat-Halo (beta-catenin HaloTag fusion expressed in HEK293 cells) (UniProt P35222 1-781, HaloTag labelled with HaloTag NanoBRET 618 Ligand)
T1 sequence (looked up): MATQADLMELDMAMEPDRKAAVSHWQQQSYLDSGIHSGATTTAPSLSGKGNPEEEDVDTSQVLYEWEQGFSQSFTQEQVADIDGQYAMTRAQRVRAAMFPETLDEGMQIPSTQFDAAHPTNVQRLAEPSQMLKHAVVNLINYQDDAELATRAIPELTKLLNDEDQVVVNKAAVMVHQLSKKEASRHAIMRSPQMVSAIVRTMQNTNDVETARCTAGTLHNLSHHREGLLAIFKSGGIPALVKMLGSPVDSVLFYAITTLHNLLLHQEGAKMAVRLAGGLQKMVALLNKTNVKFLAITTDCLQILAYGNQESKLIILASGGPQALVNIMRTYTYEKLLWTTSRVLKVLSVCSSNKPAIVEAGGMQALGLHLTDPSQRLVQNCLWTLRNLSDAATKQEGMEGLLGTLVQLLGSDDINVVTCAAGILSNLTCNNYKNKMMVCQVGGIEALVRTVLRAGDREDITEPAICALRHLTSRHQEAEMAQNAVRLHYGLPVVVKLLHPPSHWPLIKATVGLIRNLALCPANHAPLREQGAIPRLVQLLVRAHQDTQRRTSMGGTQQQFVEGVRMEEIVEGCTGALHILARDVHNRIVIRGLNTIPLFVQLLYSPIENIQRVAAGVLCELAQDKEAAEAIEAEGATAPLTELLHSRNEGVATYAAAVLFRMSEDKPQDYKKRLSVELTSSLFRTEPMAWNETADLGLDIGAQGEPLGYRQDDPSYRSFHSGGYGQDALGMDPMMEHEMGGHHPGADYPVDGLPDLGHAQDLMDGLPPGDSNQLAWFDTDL


These binders were tested against T1, B-cat-Halo (beta-catenin HaloTag fusion …) (assay: cell-based or functional assay).

Binder	NanoBRET Abs IC50 [µM]
Ac-[αAllylPro]D[tBuAla][B5(3)]DD[MePpzAsn]AFL[PyrS2″][3Thi][Bta]Q-NH2 (staple 1-4, 4-11) [I-1484]	> 20
Ac-[αAllylPro]D[tBuAla][B5(3)]DDAAF[Nva(5-morpholino)][PyrS2″][3Thi][Bta]Q-NH2 (staple 1-4, 4-11) [I-1485]	25.8
Ac-[αAllylPro]D[tBuAla][B5(3)]DDAAF[F2PipNva][PyrS2″][3Thi][Bta]Q-NH2 (staple 1-4, 4-11) [I-1486]	17.9
Ac-[αAllylPro]D[tBuAla][B5(3)]DDAAF[MorphAsn][PyrS2″][3Thi][Bta]Q-NH2 (staple 1-4, 4-11) [I-1487]	21.5
Ac-[αAllylPro]D[tBuAla][B5(3)]DDAAF[MePpzAsn][PyrS2″][3Thi][Bta]Q-NH2 (staple 1-4, 4-11) [I-1488]	30.3
Ac-[αAllylPro]D[tBuAla][B5(3)]DD[Phe(4-(3-Py))]AFL[PyrS2″]F[Bta]Q-NH2 (staple 1-4, 4-11) [I-1489]	9.2
Ac-[αAllylPro]D[tBuAla][B5(3)]DDAAFL[PyrS2″][3Thi][Bta]N-NH2 (staple 1-4, 4-11) [I-1492]	7.3
Ac-[αAllylPro]D[tBuAla][B5(27)]DDAAFL[PyrS2][3Thi][Bta]S-NH2 (staple 1-4, 4-11) [I-1493]	4.9
Ac-[αAllylPro]D[tBuAla][B5(27)]DDAAFL[PyrS2][3Thi][Bta]T-NH2 (staple 1-4, 4-11) [I-1494]	14.7
Ac-[αAllylPro]D[tBuAla][B5(27)]DDAAFL[PyrS2][3Thi][Bta]V-NH2 (staple 1-4, 4-11) [I-1495]	23.9
Ac-[αAllylPro]D[tBuAla][B5(27)]DDAAFL[PyrS2][3Thi][Bta]F-NH2 (staple 1-4, 4-11) [I-1496]	9.4
Ac-[αAllylPro]D[tBuAla][B5(27)]DDAAFL[PyrS2][3Thi][Bta]W-NH2 (staple 1-4, 4-11) [I-1497]	11.4
Ac-[αAllylPro]D[tBuAla][B5(27)]DDAAFL[PyrS2][3Thi][Bta][hSer]-NH2 (staple 1-4, 4-11) [I-1499]	6.4
Ac-[αAllylPro]D[tBuAla][B5(27)]DDAAFL[PyrS2][3Thi][Bta][dQ]-NH2 (staple 1-4, 4-11) [I-1500]	4.7
Ac-[αAllylPro]D[tBuAla][B5(27)]DDA[Nva(5-morpholino)]FL[PyrS2][3Thi][Bta]Q-NH2 (staple 1-4, 4-11) [I-1501]	> 20
Ac-[αAllylPro]D[tBuAla][B5(27)]DDA[F2PipNva]FL[PyrS2][3Thi][Bta]Q-NH2 (staple 1-4, 4-11) [I-1502]	> 20
Ac-[αAllylPro]D[tBuAla][B5(27)]DDA[MorphAbu]FL[PyrS2][3Thi][Bta]Q-NH2 (staple 1-4, 4-11) [I-1504]	> 20
